Source: US20030203841A1 (US Dept. of Health and Human Services, published 2003)
Where no end group is shown, it is not given here. The star is where a group is joined. For = O=C*

T1: FPR-like receptor 1 (FPRL1) on transfected human embryonic kidney 293 cells (FPRL1/293 cells) (human, UniProt P25090 1-351)
T1 sequence: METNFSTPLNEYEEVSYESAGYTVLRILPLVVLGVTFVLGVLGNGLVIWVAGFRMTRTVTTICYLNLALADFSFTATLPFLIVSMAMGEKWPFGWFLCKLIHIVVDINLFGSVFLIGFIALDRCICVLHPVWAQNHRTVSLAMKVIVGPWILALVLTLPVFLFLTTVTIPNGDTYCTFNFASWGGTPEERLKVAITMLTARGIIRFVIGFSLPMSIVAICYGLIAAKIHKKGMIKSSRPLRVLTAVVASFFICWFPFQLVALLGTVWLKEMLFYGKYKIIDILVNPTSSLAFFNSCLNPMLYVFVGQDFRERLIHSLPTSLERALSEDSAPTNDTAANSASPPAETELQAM

T2: epitope tagged N-formyl peptide receptor (FPR) on ETFR cells (stably transfected rat basophilic leukemia … (human, UniProt P21462 1-350))
T2 sequence: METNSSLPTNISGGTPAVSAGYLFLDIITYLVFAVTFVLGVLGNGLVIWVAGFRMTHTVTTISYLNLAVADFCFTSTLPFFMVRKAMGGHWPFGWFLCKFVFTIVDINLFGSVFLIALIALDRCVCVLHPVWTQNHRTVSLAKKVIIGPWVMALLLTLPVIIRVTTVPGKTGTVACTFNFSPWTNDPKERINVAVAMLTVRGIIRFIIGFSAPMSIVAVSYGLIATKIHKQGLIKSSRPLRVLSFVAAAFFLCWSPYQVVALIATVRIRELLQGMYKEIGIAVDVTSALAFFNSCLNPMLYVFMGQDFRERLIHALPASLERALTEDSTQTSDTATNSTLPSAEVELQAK


Assays:
[1] = target: epitope tagged N-formyl peptide receptor (FPR) on ETFR cells (stably transfected rat basophilic leukemia cells) (human) (UniProt P21462); test: cell-based or functional assay
[2] = target: epitope tagged N-formyl peptide receptor (FPR) on ETFR cells (stably transfected rat basophilic leukemia cells) (human) (UniProt P21462); test: competition of unlabeled fMLP with ^3H-fMLP for binding to FPR expressing ETFR cells, filtration, 20 min at 37 C
[3] = target: T1, FPR-like receptor 1 (FPRL1) on …; test: cell-based or functional assay
[4] = target: T2, epitope tagged N-formyl peptide …; test: cell-based or functional assay

Row | Molecule | EC50 of migration of ETFR cells (chemotaxis) [1] [nM] | concentration required to induce a change in the ratio of 2 at 340/380 nm fluorescence (Ca^++) in FPR expressing cells [1] | IC50 [2] [nM] | concentration required to induce a change in the ratio of 0.6 at 340/380 nm fluorescence (Ca^++) in FPRL1/293 cells [3] | excess of fMLP needed to desensitize the Ca^++ flux induced by T21/DP107 in FPRL1/293 cells [3] [fold] | concentration required to induce a change in the ratio of 2 at 340/380 nm fluorescence (Ca^++) in FPR expressing cells [4] | EC50 of migration of FPRL1/293 cells (chemotaxis) [3] [nM]
1 | N-formyl-methionyl-leucyl-phenylalanine (fMLP) (peptide) | 0.5 | 1e-10 | 1 |  |  |  | 
2 | For-Met-Leu-Phe (also: tritiated (3H) form used as tracer) [N-formyl-methionyl-leucyl-phenylalanine (fMLP)] |  |  |  | 5e-05 | 1000 |  | 
3 | NNLLRAIEAQQHLLQLTVWGIKQLQARILAVERYLKDQ (also: some embodiments acylated, form not given here) [T21/DP107] |  |  |  | 5e-07 |  | 1e-05 | 50
